Paper PMC3145769, “Cyclin A2 Mutagenesis Analysis: A New Insight into CDK Activation and Cellular Localization Requirements” (PLoS ONE, 2011)

Experiments:
Assay in all cases: co-IP; anti-Flag M2 affinity gel on extracts of human HEK 293 cells transfected with mouse 3xFlag Cyclin A2 alleles; endogenous partners detected by Western blot; densitometry (ImageQuantTL) normalised to immunoprecipitated Cyclin A2, percent of WT; repeated 3 times
Conditions in all cases: partners not purified
[1] = target: T1, Cyclin A2 L204A, C-terminally fused to 3 Flag tags (mouse, UniProt P51943 1-422, L204A)
T1 construct: Cyclin A2, mouse; cDNA obtained from NIH3T3 cells by RT-PCR; source: NIH3T3 or HEK 293 cells, transfected, in cell extracts; not shown: 3xFlag, C-terminal, kept
T1 sequence (P51943 whole entry L204A, the tested form may be a part): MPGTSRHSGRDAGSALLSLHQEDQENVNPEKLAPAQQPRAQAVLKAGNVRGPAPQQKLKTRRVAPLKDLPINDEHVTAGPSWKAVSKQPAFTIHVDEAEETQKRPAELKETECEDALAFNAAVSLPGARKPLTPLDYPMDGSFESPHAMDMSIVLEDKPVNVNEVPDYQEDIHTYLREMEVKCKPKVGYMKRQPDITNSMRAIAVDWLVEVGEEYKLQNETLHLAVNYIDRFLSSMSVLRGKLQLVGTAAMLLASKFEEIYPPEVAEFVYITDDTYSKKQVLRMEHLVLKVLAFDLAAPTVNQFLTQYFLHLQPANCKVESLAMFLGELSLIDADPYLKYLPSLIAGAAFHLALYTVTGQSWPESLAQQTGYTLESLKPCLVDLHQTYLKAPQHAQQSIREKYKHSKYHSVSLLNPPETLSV

[2] = target: T2, Cyclin A2 M200A, C-terminally fused to 3 Flag tags (mouse, UniProt P51943 1-422, M200A)
T2 construct: Cyclin A2, mouse; cDNA obtained from NIH3T3 cells by RT-PCR; source: NIH3T3 or HEK 293 cells, transfected, in cell extracts; not shown: 3xFlag, C-terminal, kept
T2 sequence (P51943 whole entry M200A, the tested form may be a part): as the sequence (P51943 whole entry L204A, the tested form may be a part) above, with M200A, A204L counted along it

[3] = target: T3, Cyclin A2 WT, C-terminally fused to 3 Flag tags (mouse, UniProt P51943 1-422)
T3 construct: Cyclin A2, mouse; cDNA obtained from NIH3T3 cells by RT-PCR; Same construct transfected into mouse NIH3T3 (assay a1) and human HEK 293 (assay a2); also called WT Cyclin A2 allele; Flag tagged WT Cyclin A2; source: NIH3T3 or HEK 293 cells, transfected, in cell extracts; not shown: 3xFlag, C-terminal, kept
T3 sequence (P51943 whole entry, the tested form may be a part): as the sequence (P51943 whole entry L204A, the tested form may be a part) above, with A204L counted along it

[4] = target: T4, Cyclin A2 D171A, C-terminally fused to 3 Flag tags (mouse, UniProt P51943 1-422, D171A)
T4 construct: Cyclin A2, mouse; cDNA obtained from NIH3T3 cells by RT-PCR; source: NIH3T3 or HEK 293 cells, transfected, in cell extracts; not shown: 3xFlag, C-terminal, kept
T4 sequence (P51943 whole entry D171A, the tested form may be a part): as the sequence (P51943 whole entry L204A, the tested form may be a part) above, with D171A, A204L counted along it

B1: p107 (endogenous, HEK 293) (natural protein, human (endogenous in HEK 293), UniProt P28749 1-1068, looked up)
chain: MFEDKPHAEGAAVVAAAGEALQALCQELNLDEGSAAEALDDFTAIRGNYSLEGEVTHWLACSLYVACRKSIIPTVGKGIMEGNCVSLTRILRSAKLSLIQFFSKMKKWMDMSNLPQEFRERIERLERNFEVSTVIFKKYEPIFLDIFQNPYEEPPKLPRSRKQRRIPCSVKDLFNFCWTLFVYTKGNFRMIGDDLVNSYHLLLCCLDLIFANAIMCPNRQDLLNPSFKGLPSDFHTADFTASEEPPCIIAVLCELHDGLLVEAKGIKEHYFKPYISKLFDRKILKGECLLDLSSFTDNSKAVNKEYEEYVLTVGDFDERIFLGADAEEEIGTPRKFTRDTPLGKLTAQANVEYNLQQHFEKKRSFAPSTPLTGRRYLREKEAVITPVASATQSVSRLQSIVAGLKNAPSDQLINIFESCVRNPVENIMKILKGIGETFCQHYTQSTDEQPGSHIDFAVNRLKLAEILYYKILETVMVQETRRLHGMDMSVLLEQDIFHRSLMACCLEIVLFAYSSPRTFPWIIEVLNLQPFYFYKVIEVVIRSEEGLSRDMVKHLNSIEEQILESLAWSHDSALWEALQVSANKVPTCEEVIFPNNFETGNGGNVQGHLPLMPMSPLMHPRVKEVRTDSGSLRRDMQPLSPISVHERYSSPTAGSAKRRLFGEDPPKEMLMDKIITEGTKLKIAPSSSITAENVSILPGQTLLTMATAPVTGTTGHKVTIPLHGVANDAGEITLIPLSMNTNQESKVKSPVSLTAHSLIGASPKQTNLTKAQEVHSTGINRPKRTGSLALFYRKVYHLASVRLRDLCLKLDVSNELRRKIWTCFEFTLVHCPDLMKDRHLDQLLLCAFYIMAKVTKEERTFQEIMKSYRNQPQANSHVYRSVLLKSIPREVVAYNKNINDDFEMIDCDLEDATKTPDCSSGPVKEERGDLIKFYNTIYVGRVKSFALKYDLANQDHMMDAPPLSPFPHIKQQPGSPRRISQQHSIYISPHKNGSGLTPRSALLYKFNGSPSKSLKDINNMIRQGEQRTKKRVIAIDSDAESPAKRVCQENDDVLLKRLQDVVSERANH
notes: p107, endogenous protein of human HEK 293 cells, detected by Western blot; source: endogenous, HEK 293 cell extract
[1]
  percent co-precipitated relative to WT: 5.3%
[2]
  percent co-precipitated relative to WT: 57.4%
[3]
  percent co-precipitated relative to WT: 100%
[4]
  percent co-precipitated relative to WT: 95%
